Experiments:
[1] = molecular target: T1, omalizumab; assay: phage ELISA
T1 construct: Used as irrelevant coated protein; also called irrelevant Fc-containing protein; not shown: the constant regions

[2] = molecular target: T2, recombinant cyno Tie2 extracellular domain (cynomolgus monkey, UniProt Q02763 23-748 (human entry)); assay: SPR, IgG captured, 37C
T2 construct: also called Recombinant cyno Tie2 ECD; cy Tie2
T2 chain: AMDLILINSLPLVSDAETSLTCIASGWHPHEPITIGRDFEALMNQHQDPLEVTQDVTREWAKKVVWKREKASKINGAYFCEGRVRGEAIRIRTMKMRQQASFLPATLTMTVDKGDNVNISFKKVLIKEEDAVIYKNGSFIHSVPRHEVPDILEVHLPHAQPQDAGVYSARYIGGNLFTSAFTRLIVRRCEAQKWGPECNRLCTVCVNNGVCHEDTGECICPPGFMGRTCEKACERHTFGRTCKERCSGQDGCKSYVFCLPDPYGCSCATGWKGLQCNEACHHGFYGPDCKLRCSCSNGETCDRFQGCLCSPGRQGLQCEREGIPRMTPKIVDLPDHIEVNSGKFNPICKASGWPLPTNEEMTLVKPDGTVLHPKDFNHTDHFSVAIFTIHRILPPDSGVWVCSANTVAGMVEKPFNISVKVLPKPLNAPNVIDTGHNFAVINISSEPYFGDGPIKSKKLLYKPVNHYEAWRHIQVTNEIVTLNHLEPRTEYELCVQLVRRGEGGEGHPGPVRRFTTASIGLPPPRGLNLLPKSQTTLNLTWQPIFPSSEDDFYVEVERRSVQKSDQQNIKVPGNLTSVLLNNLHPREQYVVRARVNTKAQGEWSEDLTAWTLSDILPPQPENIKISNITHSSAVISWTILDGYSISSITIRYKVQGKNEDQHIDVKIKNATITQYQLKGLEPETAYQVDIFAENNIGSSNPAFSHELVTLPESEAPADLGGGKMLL
Method: A human antibody capture chip was prepared using a Series S CM5 chip (GE Life Sciences), a human antibody capture kit (GE Life Sciences) and an amine coupling kit (GE Life Sciences). Antibodies diluted to 5 μg/ml in running buffer (10 mM HEPES, 150 mM NaCl, 0.05% Tween 20, 1 mM EDTA, pH 7.4) were non-covalently captured using a contact time of 20 seconds and a flow rate of 10 μl/minute. Binding to 300 nM and 1500 nM recombinant Tie2 was analyzed at 37° C. using a Single Cycle Kinetics method with a contact time of 60 seconds, a dissociation time of 120 seconds and a flow rate of 50 μl/min. Between cycles, the surface was regenerated by a 30 second injection of 3M MgCl₂ at a flow rate of 30 μl/min. Values for antibody capture levels and analyte binding levels were obtained from the Report Point Table (Biacore Evaluation Software v3.0, GE Life Sciences). […] Table 16: Experiment A; Table 17: Experiment B.

[3] = molecular target: T3, recombinant human Tie2 extracellular domain (human, UniProt Q02763 23-748); assay: SPR, IgG captured, steady state analysis
T3 construct: whole entry named; also called Recombinant human Tie2 ECD; hu Tie2
Method: (§1) Binding to recombinant human and cyno Tie2 was analyzed using a high performance multi-cycle kinetics format with a contact time of 60 seconds, a dissociation time of 60 seconds, a flow rate of 100 μl/minute and Tie2 concentrations of 5 μM, 2.5 μM, 1.25 μM, 625 nM, 313 nM and 156 nM. Tie2 concentrations of 5 μM, 2.5 μM and 1.25 μM were injected twice. Results were analyzed using Biacore T200 Evaluation Software v3.0 (GE Life Sciences). Results from all three surface densities were analyzed together using the 1:1 Binding model with multiple Rmax and the RI parameter set to zero.

[4] = molecular target: T2, recombinant cyno Tie2 extracellular …; assay: SPR, IgG captured, steady state analysis
Method: as §1

[5] = molecular target: T4, human Tie1 (human, UniProt P35590 22-759); assay: ELISA: human Tie1 immobilized, serial dilutions of IgG, anti-huFc-HRP
T4 construct: extracellular domain
T4 sequence (looked up): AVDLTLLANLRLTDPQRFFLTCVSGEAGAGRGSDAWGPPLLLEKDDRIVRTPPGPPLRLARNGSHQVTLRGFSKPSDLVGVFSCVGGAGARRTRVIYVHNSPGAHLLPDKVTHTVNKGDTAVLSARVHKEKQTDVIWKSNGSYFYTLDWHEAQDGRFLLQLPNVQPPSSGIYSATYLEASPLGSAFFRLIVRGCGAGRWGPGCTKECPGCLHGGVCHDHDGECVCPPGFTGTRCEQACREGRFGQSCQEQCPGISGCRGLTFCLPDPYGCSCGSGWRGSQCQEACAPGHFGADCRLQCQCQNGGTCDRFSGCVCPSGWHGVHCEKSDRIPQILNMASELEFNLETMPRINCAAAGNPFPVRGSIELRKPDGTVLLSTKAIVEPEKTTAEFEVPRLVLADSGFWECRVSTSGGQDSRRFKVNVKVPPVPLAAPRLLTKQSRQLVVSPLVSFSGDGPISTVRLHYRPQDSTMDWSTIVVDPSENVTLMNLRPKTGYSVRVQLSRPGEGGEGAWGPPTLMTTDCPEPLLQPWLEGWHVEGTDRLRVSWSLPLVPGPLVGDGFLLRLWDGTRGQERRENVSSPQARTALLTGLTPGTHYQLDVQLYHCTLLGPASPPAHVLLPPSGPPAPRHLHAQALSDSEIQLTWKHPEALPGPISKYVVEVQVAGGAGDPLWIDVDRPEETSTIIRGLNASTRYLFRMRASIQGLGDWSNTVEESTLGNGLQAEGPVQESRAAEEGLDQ
From the text: (§2) Plates were washed and detected with anti-huFC-conjugated HRP secondary antibody using the methods above.
The binding ELISA was also used with immobilized Tie1 protein to assess Tie1 binding.

[6] = molecular target: T5, mouse Tie2 ECD5 (mouse, UniProt Q02858 23-442, limits assumed); assay: ELISA: mouse Tie2 ECD5 construct immobilized, serial dilutions of IgG, anti-huFc-HRP
T5 construct: domain: ECD5 (Ig1, Ig2, EGF and Ig3 domains); also called mECD5
From the text: as §2

B1: Tie2.1 (antibody, human IgG1, V domains shown)
VH: EVQLVESGGGLVQPGGSLRLSCAASGFTFSNTDISWVRQAPGKGLEWVGRISPSDGNTYYADSVKGRFTISADTSKNTAYLQMNSLRAEDTAVYYCARRTRWASWAMDYWGQGTLVTVSS
VL: DIQMTQSPSSLSASVGDRVTITCRASQDVSTAVAWYQQKPGKAPKLLIYSASFLYSGVPSRFSGSGSGTDFTLTISSLQPEDFATYYCQQSYTTPPTFGQGTKVEIKR
notes: human IgG1 in all later assays; also called Ab1; Tie2.1.M100c
[1]
  binding result: no binding
[2]
  Normalized Binding Signal, 300 nM: 0.08
[3]
  Kd: 3000 nM
[4]
  Kd: 3000 nM
[5]
  binding result: no binding (tested: 200 nM)
[6]
  binding result: binds
